Data from PMC5443838, “Peripherin-2 and Rom-1 have opposing effects on rod outer segment targeting of retinitis pigmentosa-linked peripherin-2 mutants” (Scientific Reports, 2017).
Values joined by “and” are separate entries in the source; they are usually repeats but may differ in a detail not shown here. Identical values can stand only once.

B1: citrine- or cerulean-tagged per^WT (FRET construct, HEK293T) (natural protein, human, UniProt P23942 1-346, looked up)
chain: MALLKVKFDQKKRVKLAQGLWLMNWFSVLAGIIIFSLGLFLKIELRKRSDVMNNSESHFVPNSLIGMGVLSCVFNSLAGKICYDALDPAKYARWKPWLKPYLAICVLFNIILFLVALCCFLLRGSLENTLGQGLKNGMKYYRDTDTPGRCFMKKTIDMLQIEFKCCGNNGFRDWFEIQWISNRYLDFSSKEVKDRIKSNVDGRYLVDGVPFSCCNPSSPRPCIQYQITNNSAHYSYDHQTEELNLWVRGCRAALLSYYSSLMNSMGVVTLLIWLFEVTITIGLRYLQTSLDGVSNPEESESESQGWLLERSVPETWKAFLESVKKLGKGNQVEAEGADAGQAPEAG
notes: peripherin-2 (PRPH2), human, wild type; in the 'per^WT only' FRET pair the two copies differ in the fluorophore; also called per^WT only; source: HEK293T, transiently co-transfected, in living cells
B2: C-terminally myc- or flag-tagged per^WT (SDGC construct) (natural protein, human, UniProt P23942 1-346, looked up)
chain: MALLKVKFDQKKRVKLAQGLWLMNWFSVLAGIIIFSLGLFLKIELRKRSDVMNNSESHFVPNSLIGMGVLSCVFNSLAGKICYDALDPAKYARWKPWLKPYLAICVLFNIILFLVALCCFLLRGSLENTLGQGLKNGMKYYRDTDTPGRCFMKKTIDMLQIEFKCCGNNGFRDWFEIQWISNRYLDFSSKEVKDRIKSNVDGRYLVDGVPFSCCNPSSPRPCIQYQITNNSAHYSYDHQTEELNLWVRGCRAALLSYYSSLMNSMGVVTLLIWLFEVTITIGLRYLQTSLDGVSNPEESESESQGWLLERSVPETWKAFLESVKKLGKGNQVEAEGADAGQAPEAG
notes: peripherin-2 (PRPH2), human, wild type; also called per^WT only; source: HEK293T, transiently transfected, in lysate (0.5% Triton X-100)
B3: citrine- or cerulean-tagged per^P210L (FRET construct, HEK293T) (natural protein, human, UniProt P23942 1-346, looked up)
chain: MALLKVKFDQKKRVKLAQGLWLMNWFSVLAGIIIFSLGLFLKIELRKRSDVMNNSESHFVPNSLIGMGVLSCVFNSLAGKICYDALDPAKYARWKPWLKPYLAICVLFNIILFLVALCCFLLRGSLENTLGQGLKNGMKYYRDTDTPGRCFMKKTIDMLQIEFKCCGNNGFRDWFEIQWISNRYLDFSSKEVKDRIKSNVDGRYLVDGVLFSCCNPSSPRPCIQYQITNNSAHYSYDHQTEELNLWVRGCRAALLSYYSSLMNSMGVVTLLIWLFEVTITIGLRYLQTSLDGVSNPEESESESQGWLLERSVPETWKAFLESVKKLGKGNQVEAEGADAGQAPEAG
notes: peripherin-2 (PRPH2), human, adRP-linked mutant P210L; in the 'per^P210L only' FRET pair the two copies differ in the fluorophore; also called per^P210L only; per^MT; source: HEK293T, transiently co-transfected, in living cells
B4: citrine- or cerulean-tagged per^C214S (FRET construct, HEK293T) (natural protein, human, UniProt P23942 1-346, looked up)
chain: MALLKVKFDQKKRVKLAQGLWLMNWFSVLAGIIIFSLGLFLKIELRKRSDVMNNSESHFVPNSLIGMGVLSCVFNSLAGKICYDALDPAKYARWKPWLKPYLAICVLFNIILFLVALCCFLLRGSLENTLGQGLKNGMKYYRDTDTPGRCFMKKTIDMLQIEFKCCGNNGFRDWFEIQWISNRYLDFSSKEVKDRIKSNVDGRYLVDGVPFSCSNPSSPRPCIQYQITNNSAHYSYDHQTEELNLWVRGCRAALLSYYSSLMNSMGVVTLLIWLFEVTITIGLRYLQTSLDGVSNPEESESESQGWLLERSVPETWKAFLESVKKLGKGNQVEAEGADAGQAPEAG
notes: peripherin-2 (PRPH2), human, adRP-linked mutant C214S; in the 'per^C214S only' FRET pair the two copies differ in the fluorophore; also called per^C214S only; per^MT; source: HEK293T, transiently co-transfected, in living cells
B5: C-terminally myc- or flag-tagged per^C214S (SDGC construct) (natural protein, human, UniProt P23942 1-346, looked up)
chain: MALLKVKFDQKKRVKLAQGLWLMNWFSVLAGIIIFSLGLFLKIELRKRSDVMNNSESHFVPNSLIGMGVLSCVFNSLAGKICYDALDPAKYARWKPWLKPYLAICVLFNIILFLVALCCFLLRGSLENTLGQGLKNGMKYYRDTDTPGRCFMKKTIDMLQIEFKCCGNNGFRDWFEIQWISNRYLDFSSKEVKDRIKSNVDGRYLVDGVPFSCSNPSSPRPCIQYQITNNSAHYSYDHQTEELNLWVRGCRAALLSYYSSLMNSMGVVTLLIWLFEVTITIGLRYLQTSLDGVSNPEESESESQGWLLERSVPETWKAFLESVKKLGKGNQVEAEGADAGQAPEAG
notes: peripherin-2 (PRPH2), human, adRP-linked mutant C214S; also called per^C214S only; per^MT; source: HEK293T, transiently transfected, in lysate (0.5% Triton X-100)

How the values were obtained:
[1] = target: T1, citrine- or cerulean-tagged Rom-1 (FRET construct, HEK293T) (human, UniProt Q03395 1-351); test: FRET or BRET; 3 cube FRET in living co-transfected HEK293T cells; FRET imaging solution (140 mM NaCl, 5 mM KCl, 2 mM CaCl2, 1 mM MgCl2, 10 mM glucose, 10 mM HEPES, pH 7.4), RT; EAmax from the binding curve of apparent FRET efficiency against the cerulean/citrine molar ratio; conditions: partners not purified
T1 construct: Rom-1, homolog of peripherin-2; 'the single human peripherin-2 and Rom-1 transgenes'; source: HEK293T, transiently co-transfected, in living cells

[2] = target: the molecule itself; test: as above
[3] = target: the molecule itself; test: sucrose density gradient centrifugation; lysate of transfected HEK293T cells (0.5% Triton X-100, 150 mM NaCl, 2 mM CaCl2) on a 5-20% sucrose gradient with 0.1% Triton X-100 and 10 mM N-ethylmaleimide, 46,700 rpm, 2 h, 4 °C; 11 fractions immunoblotted with myc- or flag-specific antibodies under non-reducing conditions; DNA standards for size
[4] = target: B1; test: FRET or BRET; 3 cube FRET in living co-transfected HEK293T cells; FRET imaging solution (140 mM NaCl, 5 mM KCl, 2 mM CaCl2, 1 mM MgCl2, 10 mM glucose, 10 mM HEPES, pH 7.4), RT; EAmax from the binding curve of apparent FRET efficiency against the cerulean/citrine molar ratio; conditions: partners not purified

T1 sequence (Q03395 whole entry): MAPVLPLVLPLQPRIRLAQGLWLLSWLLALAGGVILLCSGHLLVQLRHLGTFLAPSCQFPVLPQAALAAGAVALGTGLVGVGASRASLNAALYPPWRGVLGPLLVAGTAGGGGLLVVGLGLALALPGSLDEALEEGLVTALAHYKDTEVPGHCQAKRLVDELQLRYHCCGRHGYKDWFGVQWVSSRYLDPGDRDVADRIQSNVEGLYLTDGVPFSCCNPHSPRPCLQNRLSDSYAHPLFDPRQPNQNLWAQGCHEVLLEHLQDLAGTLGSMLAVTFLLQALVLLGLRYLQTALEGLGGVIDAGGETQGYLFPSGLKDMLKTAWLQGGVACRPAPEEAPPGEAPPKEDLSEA

| Binder | EAmax (maximal FRET efficiency) [1] [%] | EAmax (maximal FRET efficiency) [2] [%] | stoichiometry N [3] | EAmax (maximal FRET efficiency) [4] [%] |
| --- | --- | --- | --- | --- |
| B1 | 15.6 | 34.2 | – | – |
| B2 | – | – | 4 and 8 | – |
| B3 | 6.58 | 30.7 | – | 9.44 |
| B4 | 6.32 | 26.5 | – | 8.58 |
| B5 | – | – | 2 | – |
